Assay in all cases: IEDB peptide-MHC binding, purified MHC/competitive/fluorescence; filed as Kd, often an IC50 or EC50 that approximates it; ≥ and ≤ were set here for values at or beyond the usual limits of such assays
Common to all, as to details: source organism: Rickettsia akari str. Hartford

Assay [1] has as its target HLA-A*26:01.
The target of assay [2] is HLA-A*30:01.
Assay [3] deals with HLA-B*07:02.
In assay [4] the target is HLA-B*39:01.
In assay [5] the target is HLA-A*23:01.
Assay [6] concerns the target HLA-B*58:01.
Assay [7] deals with HLA-B*40:01.
Assay [8] deals with HLA-B*18:01.
Assay [9] concerns the target HLA-A*02:19.
The target in assay [10] is HLA-A*68:02.
In assay [11] the target is HLA-A*03:01.
For assay [12], the target named is HLA-A*11:01.
Assay [13] addresses HLA-B*15:01.
In assay [14] the target is HLA-A*02:03.
Assay [15] has as its target HLA-A*69:01.
The target of assay [16] is HLA-B*51:01.
In assay [17] the target is HLA-A*02:01.
The target in assay [18] is HLA-A*02:16.
For assay [19], the target named is HLA-B*44:02.
Assay [20] deals with HLA-B*46:01.
In assay [21] the target is HLA-A*24:03.
For assay [22], the target named is HLA-B*27:03.
Assay [23] deals with HLA-B*57:01.
Assay [24] deals with HLA-B*14:02.

Usually Kd stands for the equilibrium constant for the complex coming apart. As to FTARIIIFS, the Kd in [1] was at least 20 µM; in assay [2], at least 5 µM; in assay [3], at least 5 µM; in [4] it was at least 20 µM; in [5], at least 20 µM; in assay [6], at least 5 µM. The dissociation constant Kd in assay [7] was at least 5 µM; in assay [8], at least 20 µM; in [9], at least 20 µM; in [10] it was 0.0276 µM; in assay [11], at least 20 µM; in assay [12], at least 5 µM. The dissociation constant Kd in [13], in [14], in assay [15], in assay [16], in [17] and in [18] was at least 20 µM each time. For the same sequence, the Kd was at least 5 µM in assay [19]; at least 20 µM in [20]; at least 20 µM in [21]; at least 20 µM in [22]; at least 20 µM in assay [23]; at least 5 µM in assay [24].
